These results are taken from patent publication US20130040853A1, “Context Specific Genetic Screen Platform to Aid in Gene Discovery and Target Validation” (Dana-Farber Cancer Institute Inc., priority 2010, published 2013).

Changes are numbered by the printed parent chain. Numbers in names are those of the source. Some results are limits rather than exact numbers.

In data set [1] the test system is HMEL-BRAF^V600E melanocytes. Kind of data set: In vivo functional genetic screen and secondary validation: kinase-transduced HMEL cells implanted in nude mice. Set-up: species or system human. To be noted: for Tumorigenicity in vivo: WT or mutant kinase expressed individually; for tumor generation individually in secondary HMEL screens: kinase transduced individually. An excerpt: A ‘cancer-kinase’ library was constructed containing sequence-verified ORFs in a lentiviral vector for 110 of the 120 kinases reported to sustain somatic driver mutations in diverse human cancers. This library was pooled and introduced into a human HMEL-BRAF^V600E melanocyte model system engineered with BRAF^V600E and TERT as well as p53DD and CDK4-R24C to inactivate the […] pathways, respectively. The HMEL-BRAF^V600E melanocyte profile, while representing the most common clinically-definable genetic profile in human melanoma, is insufficient to drive efficient melanoma formation following orthotopic transplantation in the skin (penetrance of 10% and latency of 26 weeks). In contrast, 40% of HMEL-BRAF^V600E melanocytes transduced with the cancer kinase pools developed tumors with an average latency of 13 weeks (range 10-18 weeks).
In vivo functional genetic screens: Lentivirus were prepared by co-transfecting 293T cells with individual vector backbones and standard virus packaging systems for subsequent collection of viral supernatants. Viral supernatants were then pooled randomly to generate 8 pools of high-titer lentiviral stocks. HMEL cells were transduced with either GFP control lentivirus or each representative lentiviral pool in the presence of 8 ug/ml polybrene (Company). Infected cells were expanded, mixed 1:1 with Matrigel (BD Bioscience) and then subcutaneously implanted in female nude animals (Taconic) at 1×10^6 cells per site on both flanks. Primary INK4A/ARF−/−, PTEN−/− murine astrocytes were transduced with either GFP control lentivirus or each representative lentiviral pool in the presence of 8 ug/ml polybrene (Company). Infected cells were expanded implanted into the brain parenchyma of female SCID mice (Charles River). Briefly, SCID mice were anesthetized and placed into a stereotactic apparatus equipped with a Z axis (Stoelting). A small hole was bored in the skull 0.5 mm anterior and 3.0 mm lateral to the bregma using a dental drill. Twenty thousand cells in Hank's Buffered Salt Solution were injected into the right caudate nucleus 2 mm below the surface of the brain using a 10-ul Hamilton syringe with an unbeveled 30 gauge needle. The scalp was closed using a 9-mm Autoclip Applier. Animals were followed daily for the development of subQ tumors or signs of neurological deficits. Animals were sacrifice, tumors were harvested, genomic DNA was prepared and kinases expressed in each tumor identified using PCR sequencing using plasmid specific CMV and V5 primers. Expression of each kinase was further validated by western blot analysis. Kinases expressed in each tumor were then enlisted into secondary validation screens in which stable HMEL or mouse astrocyte lines were generated expressing each kinase individually. Cells were again expanded and then implanted in female nude or SCID animals. All mice were housed and treated in accordance with protocols approved by the institutional care and use committees for animal research at the Dana-Farber Cancer Institute.

For a further data set, the system named is cJUN phosphorylation. The data set is described as follows: JNK Kinase Assay (WT and mutant kinases immunoprecipitated from HMEL cells). It is filed as biochemical, human. Particulars: as reported by level of cJUN phosphorylation; for MAP2K4/7 first incubated with inactive JNK2.

B1: JNK1 WT: wild type MAPK8/JNK1 kinase ORF expressed in HMEL cells (protein, UniProt P45983 1-427, looked up)
Mitogen-activated protein …: MSRSKRDNNFYSVEIGDSTFTVLKRYQNLKPIGSGAQGIVCAAYDAILERNVAIKKLSRPFQNQTHAKRAYRELVLMKCVNHKNIIGLLNVFTPQKSLEEFQDVYIVMELMDANLCQVIQMELDHERMSYLLYQMLCGIKHLHSAGIIHRDLKPSNIVVKSDCTLKILDFGLARTAGTSFMMTPYVVTRYYRAPEVILGMGYKENVDLWSVGCIMGEMVCHKILFPGRDYIDQWNKVIEQLGTPCPEFMKKLQPTVRTYVENRPKYAGYSFEKLFPDVLFPADSEHNKLKASQARDLLSKMLVIDASKRISVDEALQHPYINVWYDPSEAEAPPPKIPDKQLDEREHTIEEWKELIYKEVMDLEERTKNGVIRGQPSPLGAAVINGSQHPSSSSSVNDVSSMSTDPTLASDTDSSLEAAAGPLGCCR
Take B1: in data set [1], the Tumorigenicity in vivo result is given as “YES” and the “tumor generation individually in secondary HMEL screens” value was “did not generate tumors”.

B2: MAP2K4 p.Q142L: MAP2K4 somatic driver mutant, observed in colorectal adenocarcinoma (protein, UniProt P45985 2-399, looked up, variant Q142L)
Dual specificity …: AAPSPSGGGGSGGGSGSGTPGPVGSPAPGHPAVSSMQGKRKALKLNFANPPFKSTARFTLNPNPTGVQNPHIERLRTHSIESSGKLKISPEQHWDFTAEDLKDLGEIGRGAYGSVNKMVHKPSGQIMAVKRIRSTVDEKELKQLLMDLDVVMRSSDCPYIVQFYGALFREGDCWICMELMSTSFDKFYKYVYSVLDDVIPEEILGKITLATVKALNHLKENLKIIHRDIKPSNILLDRSGNIKLCDFGISGQLVDSIAKTRDAGCRPYMAPERIDPSASRQGYDVRSDVWSLGITLYELATGRFPYPKWNSVFDQLTQVVKGDPPQLSNSEEREFSPSFINFVNLCLTKDESKRPKYKELLKHPFILMYEERAVEVACYVCKILDQMPATPSSPMYVD
B2: the Tumorigenicity in vivo entry in data set [1] was “YES”. For the same molecule, the “Kinase Activity” value in the data set with cJUN phosphorylation was 4X.

B3: MAP2K4 p.S251N: MAP2K4 somatic mutant identified in a melanoma (protein, UniProt P45985 2-399, looked up, variant S251N)
Dual specificity …: B2 Dual specificity … with L141Q, S250N
Regarding B3, the “Kinase Activity” value in the data set with cJUN phosphorylation was 1X.

B4: MAP2K4 p.A279T: MAP2K4 somatic driver mutant, observed in colorectal adenocarcinoma (protein, UniProt P45985 2-399, looked up, variant A279T)
Dual specificity …: B2 Dual specificity … with L141Q, A278T
With B4, the “Kinase Activity” value in the data set with cJUN phosphorylation was less than 1X.

B5: MAP2K4 p.N2341: MAP2K4 somatic driver mutant, observed in ovarian serous carcinoma (protein, UniProt P45985 2-399, looked up, variant N234I)
Dual specificity …: B2 Dual specificity … with L141Q, N233I
With B5, the “Kinase Activity” value with cJUN phosphorylation was 2.5X^.

B6: JNK2 p.V13M: JNK2 somatic mutant, observed in colorectal adenocarcinoma (protein, UniProt P45984 1-424, looked up, variant V13M)
Mitogen-activated protein …: MSDSKCDSQFYSMQVADSTFTVLKRYQQLKPIGSGAQGIVCAAFDTVLGINVAVKKLSRPFQNQTHAKRAYRELVLLKCVNHKNIISLLNVFTPQKTLEEFQDVYLVMELMDANLCQVIHMELDHERMSYLLYQMLCGIKHLHSAGIIHRDLKPSNIVVKSDCTLKILDFGLARTACTNFMMTPYVVTRYYRAPEVILGMGYKENVDIWSVGCIMGELVKGCVIFQGTDHIDQWNKVIEQLGTPSAEFMKKLQPTVRNYVENRPKYPGIKFEELFPDWIFPSESERDKIKTSQARDLLSKMLVIDPDKRISVDEALRHPYITVWYDPAEAEAPPPQIYDAQLEEREHAIEEWKELIYKEVMDWEERSKNGVVKDQPSDAAVSSNATPSQSSSINDISSMSTEQTLASDTDSSLDASTGPLEGCR
On to B6, for which, in data set [1], the Tumorigenicity in vivo entry is reported as “YES”.

B7: JNK2 p.K56N: JNK2 somatic mutant, observed in head & neck squamous cell (protein, UniProt P45984 1-424, looked up, variant K56N)
Mitogen-activated protein …: B6 Mitogen-activated protein … with M13V, K56N
For the molecule B7, in data set [1], the Tumorigenicity in vivo entry is “YES”.

B8: MAP2K4 WT: wild type MAP2K4 kinase ORF expressed from lentiviral vector in HMEL cells (protein, UniProt P45985 1-399, looked up)
chain: MAAPSPSGGGGSGGGSGSGTPGPVGSPAPGHPAVSSMQGKRKALKLNFANPPFKSTARFTLNPNPTGVQNPHIERLRTHSIESSGKLKISPEQHWDFTAEDLKDLGEIGRGAYGSVNKMVHKPSGQIMAVKRIRSTVDEKEQKQLLMDLDVVMRSSDCPYIVQFYGALFREGDCWICMELMSTSFDKFYKYVYSVLDDVIPEEILGKITLATVKALNHLKENLKIIHRDIKPSNILLDRSGNIKLCDFGISGQLVDSIAKTRDAGCRPYMAPERIDPSASRQGYDVRSDVWSLGITLYELATGRFPYPKWNSVFDQLTQVVKGDPPQLSNSEEREFSPSFINFVNLCLTKDESKRPKYKELLKHPFILMYEERAVEVACYVCKILDQMPATPSSPMYVD
modifications: full-length
notes: wild type MAP2K4 kinase ORF expressed from lentiviral vector in HMEL cells
On to B8, for which the Tumorigenicity in vivo result in data set [1] is given as “YES”. In data set [1] (secondary validation, kinase transduced individually into HMEL-BRAF^V600E melanocytes), this molecule showed a tumor penetrance of 30%. Moreover, the “Kinase Activity” value with cJUN phosphorylation was determined as 1X.

B9: MAP2K7 WT: wild type MAP2K7 kinase ORF expressed in HMEL cells (protein, UniProt O14733 2-419, looked up)
Dual specificity …: AASSLEQKLSRLEAKLKQENREARRRIDLNLDISPQRPRPTLQLPLANDGGSRSPSSESSPQHPTPPARPRHMLGLPSTLFTPRSMESIEIDQKLQEIMKQTGYLTIGGQRYQAEINDLENLGEMGSGTCGQVWKMRFRKTGHVIAVKQMRRSGNKEENKRILMDLDVVLKSHDCPYIVQCFGTFITNTDVFIAMELMGTCAEKLKKRMQGPIPERILGKMTVAIVKALYYLKEKHGVIHRDVKPSNILLDERGQIKLCDFGISGRLVDSKAKTRSAGCAAYMAPERIDPPDPTKPDYDIRADVWSLGISLVELATGQFPYKNCKTDFEVLTKVLQEEPPLLPGHMGFSGDFQSFVKDCLTKDHRKRPKYNKLLEHSFIKRYETLEVDVASWFKDVMAKTESPRTSGVLSQPHLPFFR
Take B9: in data set [1], the “tumor generation individually in secondary HMEL screens” value is on record as “did not generate tumors”. The “Kinase Activity” value with cJUN phosphorylation is listed as 1X.

B10: MAP2K7 p.R162H: MAP2K7 somatic mutant, observed in colorectal adenocarcinoma (protein, UniProt O14733 2-419, looked up, variant R162H)
Dual specificity …: B9 Dual specificity … with R161H
As to B10, the “Kinase Activity” value with cJUN phosphorylation amounted to 1X.

B11: MAP2K7 p.R162C: MAP2K7 somatic mutant, observed in colorectal adenocarcinoma (protein, UniProt O14733 2-419, looked up, variant R162C)
Dual specificity …: B9 Dual specificity … with R161C
As to B11, the “Kinase Activity” value in the data set on cJUN phosphorylation amounted to 1X.
